Here are results for three substances from patent US8962697B2, “Bioreponsive polymers” (Interface Biologics Inc., priority 2006, dated 2015).

In one assay the target is T1, MMP-9 (Homo sapiens, UniProt P14780).
T1 construct: purchased Chemicon, Temecula, Calif
The assay is described as follows: MMP-9 bioresponsive degradation assay. Format: biochemical. The following applies: 100 nM MMP-9, 1 mM substrate, room temperature, 3 hr. The protocol: The hydrolysis of the substrates were done in MMPs activation buffer. […] 100 nM MPP-9 was added in this activating buffer and incubated at 37° C. for 4 hr. to activate enzyme. After activating, the 1 mM substrates were added to be hydrolysis at room temperature for 3 hr.

The next assay has as its target aureolysin (Staphylococcus aureus, UniProt P81177). To be noted: 100 nM aureolysin, 1 mM substrate, 37° C., 3 hr. The protocol: The hydrolysis of the substrate was performed in aureolysin activation buffer. The buffer contains 100 mM Tris-HCL, 1 mM CaCL2, pH 7.8, and 1 mM 3,4-dichloroisoumarine. 100 nM aureolysin and 1 mM substrate were added in the buffer, and then incubated at 37° C. for 3 hr.
(§1) All control degradation profiles was conducted as outlined in EXAMPLE 22 through EXAMPLE 26 utilizing the control peptides […] and PRRICV, identified as LAR-7047 and LAR-7048 respectively, as substrates.

The target in a further assay is V8 proteinase (Staphylococcus aureus, UniProt P0C1U8). The following applies: 100 nM V8 proteinase, 1 mM substrate, 37° C., 3 hr. The protocol:
The hydrolysis of the substrate was performed in V8 proteinase activation buffer. The buffer contains 100 mM Tris-HCL, 1 mM CaCl2, pH 7.8, and 10 mM o-phenanthroline. 100 nM V8 proteinase and 1 mM substrate were added in the buffer, and then incubated at 37° C. for 3 hr.
as §1

T1 sequence (P14780 107-707 limits assumed): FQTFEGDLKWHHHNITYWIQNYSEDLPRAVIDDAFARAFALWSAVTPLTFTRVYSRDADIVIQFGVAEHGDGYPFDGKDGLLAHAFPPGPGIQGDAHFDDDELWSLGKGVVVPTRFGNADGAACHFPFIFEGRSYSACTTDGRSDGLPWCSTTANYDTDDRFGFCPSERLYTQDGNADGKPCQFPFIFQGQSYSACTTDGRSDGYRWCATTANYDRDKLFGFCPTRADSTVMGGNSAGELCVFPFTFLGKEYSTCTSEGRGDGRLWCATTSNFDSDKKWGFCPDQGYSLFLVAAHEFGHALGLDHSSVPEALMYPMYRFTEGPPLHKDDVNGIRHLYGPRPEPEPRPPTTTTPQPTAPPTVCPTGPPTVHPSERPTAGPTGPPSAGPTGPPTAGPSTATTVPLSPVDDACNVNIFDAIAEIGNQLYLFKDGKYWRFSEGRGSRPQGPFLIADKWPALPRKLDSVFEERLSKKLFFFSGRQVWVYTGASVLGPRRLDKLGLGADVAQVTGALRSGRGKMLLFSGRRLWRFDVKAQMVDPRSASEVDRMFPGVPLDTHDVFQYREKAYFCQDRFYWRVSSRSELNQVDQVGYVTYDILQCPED
Sequence of aureolysin (P81177 209-509): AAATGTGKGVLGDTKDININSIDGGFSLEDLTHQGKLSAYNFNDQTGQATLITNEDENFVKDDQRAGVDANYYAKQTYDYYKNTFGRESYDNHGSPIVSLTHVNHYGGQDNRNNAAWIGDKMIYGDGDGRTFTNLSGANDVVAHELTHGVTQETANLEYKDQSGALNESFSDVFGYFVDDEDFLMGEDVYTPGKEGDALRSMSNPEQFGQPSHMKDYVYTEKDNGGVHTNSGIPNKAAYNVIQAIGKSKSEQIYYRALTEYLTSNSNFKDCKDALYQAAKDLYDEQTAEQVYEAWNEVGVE
Sequence of V8 proteinase (P0C1U8 69-336): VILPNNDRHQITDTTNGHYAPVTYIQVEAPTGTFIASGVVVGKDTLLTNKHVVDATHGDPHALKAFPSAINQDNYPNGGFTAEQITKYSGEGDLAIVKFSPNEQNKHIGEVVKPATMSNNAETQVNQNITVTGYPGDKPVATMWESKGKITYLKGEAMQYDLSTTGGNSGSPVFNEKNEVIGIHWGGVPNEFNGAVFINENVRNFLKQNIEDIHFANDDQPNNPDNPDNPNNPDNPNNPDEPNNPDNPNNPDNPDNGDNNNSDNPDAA

Regarding “Pro-arg-arg-arg-arg-pro-arg-gln-ile-thr-ala (PRRRRPRQITA) [LAR-7009, peptide targeted to MMP-9 (inflammation)]”, the “Degradation of peptide substrate by MMP-9 (fragment observed)” value (“Degradation … (fragment observed)” for short) in the assay with MMP-9 is “produced specific fragment pick: 1121.66 corresponding to PRRRRPRQ sequence”.

As for “Pro-arg-arg-ile-sys-val (PRRICV) [LAR-7048]”, the “Degradation of peptide substrate by aureolysin” value with aureolysin is on record as “No degradation”. The “Degradation of peptide substrate by V8 proteinase” value with V8 proteinase was “No degradation”. Further, the “Degradation … (fragment observed)” value with MMP-9 is “No degradation”.

On to “val-phe-phe-arg-arg-gln-thr-ala (VFFRRQTA) [LAR-7047]”, for which the “Degradation of peptide substrate by aureolysin” value with aureolysin is “No degradation”. Also, the “Degradation of peptide substrate by V8 proteinase” value in the assay with V8 proteinase is given as “No degradation”. The “Degradation … (fragment observed)” value with MMP-9 is reported as “No degradation”.
